From PMC9616921

Experiments:
[1] = target: minimal mature VEGF-C refolded from E. coli inclusion bodies (human); test: SEC; refolded, dialysed and concentrated material on Superdex 75 10/300 GL in PBS, 0.5-0.6 mL/min; calibrated with BSA, carbonic anhydrase and RNaseA; dimeric fractions 11.5-13.5 mL, monomeric fractions 13.5-15.5 mL
[2] = IP of 35S-labelled 293T supernatants and lysates, SDS-PAGE; conditions: glycan lost; control: wild type

stoichiometry N [1]	Molecule	expression_or_secretion [2]
2	minimal mature VEGF-C refolded from E. coli inclusion bodies (domain or fragment)	
	VEGF-C: N175,205W (protein) parent chain: MHLLGFFSVACSLLAAALLPGPREAPAAAAAFESGLDLSDAEPDAGEATAYASKDLEEQLRSVSSVDELMTVLYPEYWKMYKCQLRKGGWQHNREQANLNSRTEETIKFAAAHYNTEILKSIDNEWRKTQCMPREVCIDVGKEFGVATNTFFKPPCVSVYRCGGCCNSEGLQCMNTSTSYLSKTLFEITVPLSQGPKPVTISFANHTSCRCMSKLDVYRQVHSIIRRSLPATLPQCQAANKTCPTNYMWNNHICRCLAQEDFMFSSDAGDDSTDGFHDICGPNKELDEETCQCVCRAGLRPASCGPHKELDRNSCQCVCKNKLFPSQCGANREFDENTCQCVCKRTCPRNQPLNPGKCACECTESPQKCLLKGKKFHHQTCSCYRRPCTNRQKACEPGFSYSEEVCRCVPSYWKRPQMS	abolishes
	VEGF-C: N175,205Q (protein) parent chain: MHLLGFFSVACSLLAAALLPGPREAPAAAAAFESGLDLSDAEPDAGEATAYASKDLEEQLRSVSSVDELMTVLYPEYWKMYKCQLRKGGWQHNREQANLNSRTEETIKFAAAHYNTEILKSIDNEWRKTQCMPREVCIDVGKEFGVATNTFFKPPCVSVYRCGGCCNSEGLQCMNTSTSYLSKTLFEITVPLSQGPKPVTISFANHTSCRCMSKLDVYRQVHSIIRRSLPATLPQCQAANKTCPTNYMWNNHICRCLAQEDFMFSSDAGDDSTDGFHDICGPNKELDEETCQCVCRAGLRPASCGPHKELDRNSCQCVCKNKLFPSQCGANREFDENTCQCVCKRTCPRNQPLNPGKCACECTESPQKCLLKGKKFHHQTCSCYRRPCTNRQKACEPGFSYSEEVCRCVPSYWKRPQMS	abolishes
